This is an account of results in paper PMC3462262 (Molecular cell, 2012).

For this assay, the target named is Ub subunit of the UbcH5c-O~Ub conjugate (UniProt P0CG48 1-76, C-terminus oxyester-linked to Ser85 of UbcH5c). Description: NMR titration.

B1: UbcH5c subunit of the UbcH5c-O~Ub conjugate (Cys85Ser, S22R) (enzyme)
chain: not shown
modifications: active site Ser85 oxyester-linked to the Ub C-terminus
As for B1, the binding result is recorded as “binds”.
